These results are taken from patent US20150232576A1 (published 2015).

The target of assay [1] is T1, calmodulin (CaM) (UniProt P0DP23 2-149). The assay is described as follows: optical biosensing (BLI, SPR), immobilised CaM.
The target in assay [2] is T2, ERK-2 (extracellular signal-regulated kinase 2) (UniProt P28482 1-360, limits assumed, biotinylated for immobilisation on streptavidin sensors).
T2 construct: Bought protein; also called ERK1/2
As to the kind of experiment: BLI, immobilised ERK-2, single component fit. How it is done:
NOSs were expressed and purified as known in the art (22-24). Heme and flavin content were estimated spectrophotometrically, and activity assayed by following NADPH consumption at 340 nm (23, 24). eNOS NO synthase activity and cytochrome c reduction were assayed as known in the art (25, 26), the concentration of CaM was reduced to 0.6 μM because of potential competition between CaM and p38. Phosphorylated His-p38 was expressed as known in the art (26) and was purified using Talon™ resin as directed by the manufacturer. ERK-2 was purchased from PROSPEC (NJ). Biolayer interferometry (27) measurements were made on a ForteBio (Menlo Park Calif.) Octet QK biosensor using streptavidin sensors. Assays were performed in 200 μL volumes at 25° C. p38 and ERK were biotinylated as known in the art (21). Biotinylated kinases were loaded onto sensors for 600 s. After establishing baseline response, kinases were exposed to analyte eNOS or nNOS at a range of concentrations. Baseline, association, and dissociation phases were all performed in NOS buffer (10 mM phosphate, pH 7.5, 100 mM NaCl, 10% glycerol, 0.005% surfactant P-20, 10 uM CaCl₂). Association and dissociation were monitored as nm shift. Nonspecific binding of analytes to sensors without ligand was negligible and so was not subtracted.
The concentration dependence was similar to that of the binding of eNOS to p38. […]
In general terms: BLI is a label-free optical method that tracks binding on a fibre tip over time.

For assay [3], the target named is T1, calmodulin (CaM). As to the kind of experiment: SPR (Biacore X100, CAPture chip), immobilised CaM, single-cycle kinetics, sequential model.
The target of assay [4] is T1, calmodulin (CaM). As to the kind of experiment: BLI, biotinylated CaM on streptavidin sensors, eNOS analyte, global single-state model.
For assay [5], the target named is T1, calmodulin (CaM). The assay is described as follows: BLI, immobilised CaM, single-state model.

T2 sequence (P28482 whole entry): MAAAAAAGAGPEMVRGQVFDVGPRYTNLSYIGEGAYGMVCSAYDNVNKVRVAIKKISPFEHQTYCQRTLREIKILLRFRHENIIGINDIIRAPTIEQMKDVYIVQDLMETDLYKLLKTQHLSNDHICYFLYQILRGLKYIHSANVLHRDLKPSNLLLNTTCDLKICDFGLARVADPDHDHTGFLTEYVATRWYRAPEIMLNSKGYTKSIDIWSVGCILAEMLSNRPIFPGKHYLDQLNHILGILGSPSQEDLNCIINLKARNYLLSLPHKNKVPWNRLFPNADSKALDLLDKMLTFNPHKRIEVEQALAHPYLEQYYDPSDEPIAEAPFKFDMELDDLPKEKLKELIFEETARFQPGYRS

B1: endothelial nitric oxide synthase (eNOS), purified, unphosphorylated (enzyme, bovine, UniProt P29473 1-1205, looked up)
chain: MGNLKSVGQEPGPPCGLGLGLGLGLCGKQGPASPAPEPSRAPAPATPHAPDHSPAPNSPTLTRPPEGPKFPRVKNWELGSITYDTLCAQSQQDGPCTPRCCLGSLVLPRKLQTRPSPGPPPAEQLLSQARDFINQYYSSIKRSGSQAHEERLQEVEAEVASTGTYHLRESELVFGAKQAWRNAPRCVGRIQWGKLQVFDARDCSSAQEMFTYICNHIKYATNRGNLRSAITVFPQRAPGRGDFRIWNSQLVRYAGYRQQDGSVRGDPANVEITELCIQHGWTPGNGRFDVLPLLLQAPDEAPELFVLPPELVLEVPLEHPTLEWFAALGLRWYALPAVSNMLLEIGGLEFSAAPFSGWYMSTEIGTRNLCDPHRYNILEDVAVCMDLDTRTTSSLWKDKAAVEINLAVLHSFQLAKVTIVDHHAATVSFMKHLDNEQKARGGCPADWAWIVPPISGSLTPVFHQEMVNYILSPAFRYQPDPWKGSATKGAGITRKKTFKEVANAVKISASLMGTLMAKRVKATILYASETGRAQSYAQQLGRLFRKAFDPRVLCMDEYDVVSLEHEALVLVVTSTFGNGDPPENGESFAAALMEMSGPYNSSPRPEQHKSYKIRFNSVSCSDPLVSSWRRKRKESSNTDSAGALGTLRFCVFGLGSRAYPHFCAFARAVDTRLEELGGERLLQLGQGDELCGQEEAFRGWAKAAFQASCETFCVGEEAKAAAQDIFSPKRSWKRQRYRLSTQAEGLQLLPGLIHVHRRKMFQATVLSVENLQSSKSTRATILVRLDTAGQEGLQYQPGDHIGICPPNRPGLVEALLSRVEDPPPPTESVAVEQLEKGSPGGPPPSWVRDPRLPPCTLRQALTFFLDITSPPSPRLLRLLSTLAEEPSEQQELETLSQDPRRYEEWKWFRCPTLLEVLEQFPSVALPAPLLLTQLPLLQPRYYSVSSAPNAHPGEVHLTVAVLAYRTQDGLGPLHYGVCSTWLSQLKTGDPVPCFIRGAPSFRLPPDPYVPCILVGPGTGIAPFRGFWQERLHDIESKGLQPAPMTLVFGCRCSQLDHLYRDEVQDAQERGVFGRVLTAFSREPDSPKTYVQDILRTELAAEVHRVLCLERGHMFVCGDVTMATSVLQTVQRILATEGDMELDEAGDVIGVLRDQQRYHEDIFGLTLRTQEVTSRIRTQSFSLQERHLRGAVPWAFDPPGPDTPGP
notes: Expressed and purified 'as known in the art (22-24)'; also called unphosphorylated eNOS; purified eNOS
By Kd is commonly meant the concentration at which binding is half-saturated. A low value points to a tighter complex. Broadly, the koff is the rate constant with which the complex falls apart. What is called kon is a measure of how fast the partners come together. A high value points to fast association. Consider B1, for which the Kd in assay [1] was approximately 1 nM; in assay [3], 0.72 nM; in assay [4] it was 0.92 nM. For the same molecule, in assay [2], the “fold of apparent Kd against that measured for p38” value is approximately 2 fold. In assay [4], the koff came to 0.00011 s⁻¹. The molecule also yielded an on-rate constant (kon) in assay [4] of 120000 M⁻¹ s⁻¹.

B2: ERK phosphorylated eNOS (enzyme)
chain: MGNLKSVGQEPGPPCGLGLGLGLGLCGKQGPASPAPEPSRAPAPATPHAPDHSPAPNSPTLTRPPEGPKFPRVKNWELGSITYDTLCAQSQQDGPCTPRCCLGSLVLPRKLQTRPSPGPPPAEQLLSQARDFINQYYSSIKRSGSQAHEERLQEVEAEVASTGTYHLRESELVFGAKQAWRNAPRCVGRIQWGKLQVFDARDCSSAQEMFTYICNHIKYATNRGNLRSAITVFPQRAPGRGDFRIWNSQLVRYAGYRQQDGSVRGDPANVEITELCIQHGWTPGNGRFDVLPLLLQAPDEAPELFVLPPELVLEVPLEHPTLEWFAALGLRWYALPAVSNMLLEIGGLEFSAAPFSGWYMSTEIGTRNLCDPHRYNILEDVAVCMDLDTRTTSSLWKDKAAVEINLAVLHSFQLAKVTIVDHHAATVSFMKHLDNEQKARGGCPADWAWIVPPISGSLTPVFHQEMVNYILSPAFRYQPDPWKGSATKGAGITRKKTFKEVANAVKISASLMGTLMAKRVKATILYASETGRAQSYAQQLGRLFRKAFDPRVLCMDEYDVVSLEHEALVLVVTSTFGNGDPPENGESFAAALMEMSGPYNSSPRPEQHKSYKIRFNSVSCSDPLVSSWRRKRKESSNTDSAGALGTLRFCVFGLGSRAYPHFCAFARAVDTRLEELGGERLLQLGQGDELCGQEEAFRGWAKAAFQASCETFCVGEEAKAAAQDIFSPKRSWKRQRYRLSTQAEGLQLLPGLIHVHRRKMFQATVLSVENLQSSKSTRATILVRLDTAGQEGLQYQPGDHIGICPPNRPGLVEALLSRVEDPPPPTESVAVEQLEKGSPGGPPPSWVRDPRLPPCTLRQALTFFLDITSPPSPRLLRLLSTLAEEPSEQQELETLSQDPRRYEEWKWFRCPTLLEVLEQFPSVALPAPLLLTQLPLLQPRYYSVSSAPNAHPGEVHLTVAVLAYRTQDGLGPLHYGVCSTWLSQLKTGDPVPCFIRGAPSFRLPPDPYVPCILVGPGTGIAPFRGFWQERLHDIESKGLQPAPMTLVFGCRCSQLDHLYRDEVQDAQERGVFGRVLTAFSREPDSPKTYVQDILRTELAAEVHRVLCLERGHMFVCGDVTMATSVLQTVQRILATEGDMELDEAGDVIGVLRDQQRYHEDIFGLTLRTQEVTSRIRTQSFSLQERHLRGAVPWAFDPPGPDTPGP
modifications: phosphorylated in vitro by ERK2 at S602, T46 and S58 (bovine eNOS numbering); apparent stoichiometry 2-3 phosphates per monomer
In assay [1], B2 came in with a Kd of approximately 1 nM. Besides, the “fold higher koff than unphosphorylated eNOS” value in assay [5] amounted to 3 fold. In assay [3], this molecule displayed a Kd of 0.65 nM. In assay [4], the Kd worked out at 2.7 nM, the koff amounted to 0.00012 s⁻¹ and the kon turned out to be 120000 M⁻¹ s⁻¹.
